Assay results from the supplement of paper PMC9170038.

What was measured:
MS2 coat protein [1] = assay: apparent KD of MS2 coat protein, switch OFF state (with FMN for OFF switches, without FMN for ON switches); designed switch direction (-1 OFF switch, 1 ON switch): -1; higher = weaker reporter binding; details: FMN input: 0 or 200 uM; Eterna round: R93 (includes R88 designs)
Outline: (§1)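 Apparent KD per design is the median of normalised cluster binding-curve fits. Designed RNA switches transcribed on-chip from Illumina sequencing clusters were titrated with SNAP-549-labelled MS2 coat protein in twofold steps from 0.7 or 1.5 nM to 3 µM, with 0.8–1.5 h down to 10–20 min per step. Buffer: 100 mM Tris-HCl pH 7.5, 80 mM KCl, 4 mM MgCl2, without or with constant ligand.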

MS2 coat protein [2] = assay: apparent KD of MS2 coat protein, switch ON state; designed switch direction (-1 OFF switch, 1 ON switch): -1; higher = weaker reporter binding; details: FMN input: 0 or 200 uM; Eterna round: R93 (includes R88 designs)
Outline: as §1

| Sequence | apparent KD of MS2 coat protein (MS2 coat protein [1]) [nM] | apparent KD of MS2 coat protein (MS2 coat protein [2]) [nM] |
| --- | --- | --- |
| AAAAAGAGAGGAUAUACAUGAGGAUCACCCAUGUGAAAGACGAAAAAAAGUCUAAAGUGUAGAAGGCUCAAAAA [65%, Moding Exclusion3-cac2, 14] | 104 | 25.3 |
| AAGAAGGUAGGAUAUACUAAAGAAACUAAUGCAAAGAUAAAACAUGAGGAUCACCCAUGUAGAAGGGCCAGAAA [JR_Exc002_Sub016] | 25.1 | 35.6 |
| AAAAAACAUGAGGAUCACCCAUGUAAGGAUAUCGGAAAAGGAAAAAAAAAAAAGAAGACGAGAAGGUACACCAA | 31.5 | 25.9 |
| AGAAACUGAGGAUAUACUUUGGGAAAAGAAAAGAUGAUGUUACAUGAGGAUCACCCAUGUAGAAGGCAGAAAGA [Mat - Exclusion 2 - Mod - D152] | 30.3 | 25.5 |
| AACAGUACAGGAUAUACAUGAGGAUCACCCAUGUGAAAAUUAAGUGGGAAACCACAAGGUAGAAGGGUACUGGA [Mat - Exclusion 3 - Eli mod - D64] | 157 | 27.1 |
| AAGAAUCGAGGAUAUACAUGAGGAUCACCCAUGUAAAAGAAAGAGGGAAAAGAGAAAAGUAGAAGGCGAAAGAA [Ptolemy Memphitis] | 21.6 | 45.9 |
| AAGAAGUGAGGAUAUACGCGAACAAAAAAAAAAAAGAAAGCGUAGAAGGCACAUGAGGAUCACCCAUGUCCAAA | 34.9 | 27.7 |
| AGUGAGUGAGGAUAUGCCUGAAGAAUAAAAGAAAUAACGAGGCAGAAGGCACAUGAGGAUCACCCAUGUACACA [May 65] | 28.2 | 32.1 |
| GAACACGGAGGAUAUACAUGAGGAUCACCCAUGUUGAUCCUCAUUAAAAUUGAUAAAUGUAGAAGGCCGUGAUA [Exclusion 3.11 (a Vinnie Mod, FMN+ favored more)] | 21.2 | 49.4 |
| AGUAUGCGAGGAUAUACAUGAGGAUCACCCAUGUGAGAGAUAAGAGUGAGAAAGACAAGUAGAAGGCGCGUACA [JL Lego Mod 25] | 71.7 | 78.4 |
| AGAUGACAUGAGGAUCACCCAUGUAAGGAUAUACGAGUAGGAGAAUAAAAUGAUAGAAGUAGAAGGUACGUAGA ['Exclusion 1' Lab (2)] | 58.1 | 68 |
| ACAAAUGUAGGAUAUACAUGAGGAUCACCCAUGUGGCAGAAACAGCAAACAAGACGAAGUAGAAGGACAACGAC [JR_Exc003-Sub902] | 28.6 | 29.1 |
| AAGUACUCAGGAUAUACAUGAGGAUCACCCAUGUGAAAAAAGCGUAAAAAACGCACAUGUAGAAGGGAGUACAA [JL In thr Red Again] | 333 | 122 |
| AAGAGUAGAGGAUAUACAUGAGGAUCACCCAUGUAAUCCGGAUAAGGAAGCAUGUCGUGUAGAAGGCUGCAUGA [MOD 3 of Nando (MS2 Riboswitches- Exclusion 3)] | 14.1 | 15.5 |
| AAAAAGGUAGGAUAUACAUGAGGAUCACCCAUGUACAUAAAUGGAGAAAAAAACAGUUGUAGAAGGGCCAAAAA [Ex3 Malc#9] | 34.5 | 41.7 |
| CUCUUGUGAGGAUAUCUAAGAAAAGAAAAGAAAGAAAAGAAAGAGAAGGCACAUGAGGAUCACCCAUGUAAGAA [EteRNA is fun!] | 84.6 | 35.7 |
| CCUAUGUCAGGAUAUCAGUAGUAAAAAAAAAAAAUUACUACUGAGAAGGGACAUGAGGAUCACCCAUGUCCAAA [EX4 312: Super Stable 12] | 18.4 | 25.6 |
| GUGGAACAUGAGGAUCACCCAUGUGAGGAUAUAGGUUUUUGGGAAAAACUAGGAGAAACUAGAAGGCGCAAGAA [Exclusion 1.1] | 22 | 26.2 |
| AAAAAACAUGAGGAUCACCCAUGUGAGGAUAUCGUGCAGAAAAAAAAAAAAAACUGCACGAGAAGGCACAUGAA | 105 | 38.9 |
